Test results: US20250381223A1

Tests used:
Her2-Fc [1] = experiment: flow cytometry of T cells with 0.5 µg 4D5.BBZ mRNA and 15 µg 4.1 mRNA; Her2-Fc + PE-anti-IgG-Fc; E1 without mRNA: 1.26
Her2-Fc [2] = experiment: flow cytometry of T cells with 0.5 µg 4D5.BBZ mRNA and 15 µg 4.2 mRNA; Her2-Fc + PE-anti-IgG-Fc; E1 without mRNA: 1.26
Her2-Fc [3] = experiment: flow cytometry of T cells with 0.5 µg 4D5.BBZ mRNA and 15 µg 4.3 mRNA; Her2-Fc + PE-anti-IgG-Fc; E1 without mRNA: 1.26
Her2-Fc [4] = experiment: flow cytometry of T cells with 0.5 µg 4D5.BBZ mRNA and 15 µg 4.4 mRNA; Her2-Fc + PE-anti-IgG-Fc; E1 without mRNA: 1.26
Her2-Fc [5] = experiment: flow cytometry of T cells with 0.5 µg 4D5.BBZ mRNA and 15 µg 4.5 mRNA; Her2-Fc + PE-anti-IgG-Fc; E1 without mRNA: 1.26
Her2-Fc [6] = experiment: flow cytometry of T cells with 0.5 µg 4D5.BBZ mRNA and 15 µg 4.6 mRNA; Her2-Fc + PE-anti-IgG-Fc; E1 without mRNA: 1.26
Her2-Fc [7] = experiment: flow cytometry of T cells with 0.5 µg 4D5.BBZ mRNA and 15 µg 4.7 mRNA; Her2-Fc + PE-anti-IgG-Fc; E1 without mRNA: 1.26
Her2-Fc [8] = experiment: flow cytometry of T cells with 0.5 µg 4D5.BBZ mRNA and 15 µg 4.8 mRNA; Her2-Fc + PE-anti-IgG-Fc; E1 without mRNA: 1.26
Her2-Fc [9] = experiment: flow cytometry of T cells with 0.5 µg 4D5.BBZ mRNA and 15 µg 8.6 mRNA; Her2-Fc + PE-anti-IgG-Fc; E1 without mRNA: 1.26
CD40-Fc (human) = CD40-Fc (human) (UniProt P25942); experiment: flow cytometry of T cells electroporated with 0.5 µg 4D5.BBZ mRNA alone; CD40-Fc + PE-anti-IgG-Fc; E1 without mRNA: 0.27
Her2-Fc [10] = experiment: flow cytometry of T cells electroporated with 0.5 µg 4D5.BBZ mRNA alone; Her2-Fc + PE-anti-IgG-Fc; E1 without mRNA: 1.26
Her2-Fc [11] = experiment: flow cytometry of T cells with 0.5 µg 4D5.BBZ mRNA and 5 µg A40C28 mRNA; Her2-Fc + PE-anti-IgG-Fc; E1 without mRNA: 1.26
Her2-Fc [12] = experiment: flow cytometry of T cells with 0.5 µg 4D5.BBZ mRNA and 15 µg 1412-4D11 mRNA; Her2-Fc + PE-anti-IgG-Fc; E1 without mRNA: 1.26

In the case of 4D5.BBZ (scFv), the % of cells in the positive gate (Her2-Fc [1]) is reported as 89.6, the % of cells in the positive gate (Her2-Fc [2]) is reported as 88.8 and the % of cells in the positive gate (Her2-Fc [3]) is reported as 91.4. The % of cells in the positive gate (Her2-Fc [4]) was 91.1, the % of cells in the positive gate (Her2-Fc [5]) was 85.5 and the % of cells in the positive gate (Her2-Fc [6]) was 87.9. For the same substance, the % of cells in the positive gate (Her2-Fc [7]) was 82.6, the % of cells in the positive gate (Her2-Fc [8]) was 81.6 and the % of cells in the positive gate (Her2-Fc [9]) was 86.1. For the same substance, the % of cells in the positive gate (CD40-Fc (human)) was 0.67, the % of cells in the positive gate (Her2-Fc [10]) was 94.9 and the % of cells in the positive gate (Her2-Fc [11]) was 94.6. It also gave a % of cells in the positive gate (Her2-Fc [12]) of 18.5.
